Data on 39 variants can be found in the MegaScale stability set (Tsuboyama et al. 2023).

The labels stand for the following.
B1: 5KPH (parent)
chain: EEKRQVKQVAKEKLLEQSPNSKVQVRRVQKQGNTIRVELELRTNGKKENYTVEVERQGNTWTVKRITRT

Variants of B1 are the subject of this data set. The data set is described as follows: folding stability dG (cDNA display proteolysis); higher = more stable. The conditions noted are these: PBS, room temperature.
As to EEKRQVKQVAKEKLLEQSPNSKVQVRRVQKQGNTIRVELELRTNGKKENYTVEVERQGNTWTVKRKTRT [I66K], the “folding stability dG” value came to 1.54 kcal/mol.
Regarding EEKRQVKQVAKEKLLEQSPNSKVQVRRVQKQGNTIRVELELRTNGKKENYTVEVERQGNTWTVKRFTRT [I66F], the “folding stability dG” value is 3.04 kcal/mol.
For EEKRQVKQVAKEKLLEQSPNSKVQVRRVQKQGNTIRVELELRTNGKKENYTVEVERQGNTWTVKRYTRT [I66Y] the value was 2.85 kcal/mol; for EEKRQVKQVAKEKLLEQSPNSKVQVRRVQKQGNTIRVELELRTNGKKENYTVEVERQGNTWTVKRQTRT [I66Q], 1.95 kcal/mol; for EEKRQVKQVAKEKLLEQSPNSKVQVRRVQKQGNTIRVELELRTNGKKENYTVEVERQGNTWTVKRWTRT [I66W], 3.15 kcal/mol.
For EEKRQVKQVAKEKLLEQSPNSKVQVRRVQKQGNTIRVELELRTNGKKENYTVEVERQGNTWTVKRETRT [I66E] the value was 1.1 kcal/mol; for EEKRQVKQVAKEKLLEQSPNSKVQVRRVQKQGNTIRVELELRTNGKKENYTVEVERQGNTWTVKRRTRT [I66R], 1.28 kcal/mol; for EEKRQVKQVAKEKLLEQSPNSKVQVRRVQKQGNTIRVELELRTNGKKENYTVEVERQGNTWTVKRMTRT [I66M], 3.38 kcal/mol.
As to EEKRQVKQVAKEKLLEQSPNSKVQVRRVQKQGNTIRVELELRTNGKKENYTVEVERQGNTWTVKRGTRT [I66G], the “folding stability dG” value was 0.993 kcal/mol.
As to EEKRQVKQVAKEKLLEQSPNSKVQVRRVQKQGNTIRVELELRTNGKKENYTVEVERQGNTWTVKRDTRT [I66D], the “folding stability dG” value was 0.142 kcal/mol.
For EEKRQVKQVAKEKLLEQSPNSKVQVRRVQKQGNTIRVELELRTNGKKENYTVEVERQGNTWTVKRPTRT [I66P], the “folding stability dG” value was determined as 1.72 kcal/mol.
On to EEKRQVKQVAKEKLLEQSPNSKVQVRRVQKQGNTIRVELELRTNGKKENYTVEVERQGNTWTVKRATRT [I66A], for which the “folding stability dG” value worked out at 2.2 kcal/mol.
The figure for EEKRQVKQVAKEKLLEQSPNSKVQVRRVQKQGNTIRVELELRTNGKKENYTVEVERQGNTWTVKRNTRT [I66N] is 1.2 kcal/mol; for EEKRQVKQVAKEKLLEQSPNSKVQVRRVQKQGNTIRVELELRTNGKKENYTVEVERQGNTWTVKRLTRT [I66L] it is 3.25 kcal/mol.
For EEKRQVKQVAKEKLLEQSPNSKVQVRRVQKQGNTIRVELELRTNGKKENYTVEVERQGNTWTVKRSTRT [I66S] the value was 2.1 kcal/mol; for EEKRQVKQVAKEKLLEQSPNSKVQVRRVQKQGNTIRVELELRTNGKKENYTVEVERQGNTWTVKRVTRT [I66V], 3.94 kcal/mol.
For EEKRQVKQVAKEKLLEQSPNSKVQVRRVQKQGNTIRVELELRTNGKKENYTVEVERQGNTWTVKRHTRT [I66H] the value was 1.67 kcal/mol.
Consider EEKRQVKQVAKEKLLEQSPNSKVQVRRVQKQGNTIRVELELRTNGKKENYTVEVERQGNTWTVKRCTRT [I66C], for which the “folding stability dG” value amounted to 2.88 kcal/mol.
Take EEKRQVKQVAKEKLLEQSPNSKVQVRRVQKQGNTIRVELELRTNGKKENYTVEVERQGNTWTVARITRT [K64A]: the “folding stability dG” value is 3.83 kcal/mol.
EEKRQVKQVAKEKLLEQSPNSKVQVRRVQKQGNTIRVELELRTNGKKENYTVEVERQGNTWTVYRITRT [K64Y]: the “folding stability dG” value worked out at 3.5 kcal/mol.
The figure for EEKRQVKQVAKEKLLEQSPNSKVQVRRVQKQGNTIRVELELRTNGKKENYTVEVERQGNTWTVNRITRT [K64N] is 3.48 kcal/mol.
With EEKRQVKQVAKEKLLEQSPNSKVQVRRVQKQGNTIRVELELRTNGKKENYTVEVERQGNTWTVLRITRT [K64L], the “folding stability dG” value was determined as 4.27 kcal/mol.
Turning to EEKRQVKQVAKEKLLEQSPNSKVQVRRVQKQGNTIRVELELRTNGKKENYTVEVERQGNTWTVSRITRT [K64S], the “folding stability dG” value was 3.94 kcal/mol.
The figure for EEKRQVKQVAKEKLLEQSPNSKVQVRRVQKQGNTIRVELELRTNGKKENYTVEVERQGNTWTVMRITRT [K64M] is 4.28 kcal/mol.
For EEKRQVKQVAKEKLLEQSPNSKVQVRRVQKQGNTIRVELELRTNGKKENYTVEVERQGNTWTVFRITRT [K64F] the value was 3.7 kcal/mol.
Consider EEKRQVKQVAKEKLLEQSPNSKVQVRRVQKQGNTIRVELELRTNGKKENYTVEVERQGNTWTVQRITRT [K64Q], for which the “folding stability dG” value amounted to 3.56 kcal/mol.
Consider EEKRQVKQVAKEKLLEQSPNSKVQVRRVQKQGNTIRVELELRTNGKKENYTVEVERQGNTWTVPRITRT [K64P], for which the “folding stability dG” value was determined as 2.28 kcal/mol.
For EEKRQVKQVAKEKLLEQSPNSKVQVRRVQKQGNTIRVELELRTNGKKENYTVEVERQGNTWTVTRITRT [K64T] the value was 4.29 kcal/mol; for EEKRQVKQVAKEKLLEQSPNSKVQVRRVQKQGNTIRVELELRTNGKKENYTVEVERQGNTWTVGRITRT [K64G], 3.25 kcal/mol.
The figure for EEKRQVKQVAKEKLLEQSPNSKVQVRRVQKQGNTIRVELELRTNGKKENYTVEVERQGNTWTVDRITRT [K64D] is 2.18 kcal/mol; for EEKRQVKQVAKEKLLEQSPNSKVQVRRVQKQGNTIRVELELRTNGKKENYTVEVERQGNTWTVIRITRT [K64I] it is 4.47 kcal/mol.
For EEKRQVKQVAKEKLLEQSPNSKVQVRRVQKQGNTIRVELELRTNGKKENYTVEVERQGNTWTVERITRT [K64E] the value was 2.86 kcal/mol; for EEKRQVKQVAKEKLLEQSPNSKVQVRRVQKQGNTIRVELELRTNGKKENYTVEVERQGNTWTVHRITRT [K64H], 3.25 kcal/mol.
Turning to EEKRQVKQVAKEKLLEQSPNSKVQVRRVQKQGNTIRVELELRTNGKKENYTVEVERQGNTWTVVRITRT [K64V], the “folding stability dG” value was 4.3 kcal/mol.
With EEKRQVKQVAKEKLLEQSPNSKVQVRRVQKQGNTIRVELELRTNGKKENYTVEVERQGNTWTVWRITRT [K64W], the “folding stability dG” value came to 3.08 kcal/mol.
For EEKRQVKQVAKEKLLEQSPNSKVQVRRVQKQGNTIRVELELRTNGKKENYTVEVERQGNTWTVRRITRT [K64R] the value was 3.94 kcal/mol.
The figure for EEKRQVKQVAKEKLLEQSPNSKVQVRRVQKQGNTIRVELELRTNGKKENYTVEVERQGNTWTVCRITRT [K64C] is 3.62 kcal/mol; for EEKRQVKQVAKEKLLEQSPNSKVQVRRVQKQGNTIRVELELRTNGKKENYTVEVERQGNTWTVKRIGRT [T67G] it is 3.01 kcal/mol.
Consider EEKRQVKQVAKEKLLEQSPNSKVQVRRVQKQGNTIRVELELRTNGKKENYTVEVERQGNTWTVKRIART [T67A], for which the “folding stability dG” value worked out at 3.46 kcal/mol.
